Target: SARS-CoV-2 S-2P (engineered Spike ectodomain trimer with two stabilizing proline mutations) (SARS-CoV-2)
Assay: […] (200 mM NaCl, 20 mM Tris-HCl pH 7.5), 4 °C; […]

Substance: SARS-CoV-2 S-2P (engineered Spike ectodomain trimer with two stabilizing proline mutations) (natural protein)
- stoichiometry N: 3

— paper PMC9907810
